The target of experiment [1] is soluble VEGF receptor Flt-1 (sFlt-1) (UniProt P17948). As to the kind of experiment: ELISA, plate-coated sFlt-1, detection with DHFR-specific mAb.
Experiment [2] deals with soluble VEGF receptor KDR (sKDR) (UniProt P35968). Briefly: ELISA, plate-coated sKDR, detection with DHFR-specific mAb.

OD492 nm data for one substance are collected here from patent publication US20050154187A1.

Chain of dihydrofolate reductase (DHFR), negative control protein (P00375 1-186 limits assumed): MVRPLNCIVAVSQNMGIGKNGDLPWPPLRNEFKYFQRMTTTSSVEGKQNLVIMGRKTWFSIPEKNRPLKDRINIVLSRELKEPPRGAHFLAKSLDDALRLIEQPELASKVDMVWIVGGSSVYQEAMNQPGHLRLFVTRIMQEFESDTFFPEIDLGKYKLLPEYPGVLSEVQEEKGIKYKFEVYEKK

Take “dihydrofolate reductase (DHFR), negative control protein (from UniProt P00375 1-186) (enzyme)”: the OD492 nm in experiment [1] was determined as 0.088 OD492 nm; in experiment [2] it was 0.074 OD492 nm.
